Series [1] concerns the molecule itself. The series can be described thus: crystal structure; apo form (1.80 Å) and IMP/Mg2+-bound form (1.72 Å), space group F23; one monomer in the asymmetric unit, dimer with a symmetry-related molecule.
Series [2] deals with the molecule itself. The series can be described thus: SEC; analytical gel filtration of NUDT16 wild-type against standard proteins; protocol in S1 Text. On the technique in general: Size exclusion chromatography separates by hydrodynamic size, large species first.

One may read the stoichiometry N as the number of molecules, sites or subunits per partner or assembly.

B1: human NUDT16 A22V (construct used for crystallography) (enzyme, UniProt Q96DE0 1-195, looked up)
chain: MAGARRLELGEALALGSGWRHVCHALLYAPDPGMLFGRIPLRYAILMQMRFDGRLGFPGGFVDTQDRSLEDGLNRELREELGEAAAAFRVERTDYRSSHVGSGPRVVAHFYAKRLTLEELLAVEAGATRAKDHGLEVLGLVRVPLYTLRDGVGGLPTFLENSFIGSAREQLLEALQDLGLLQSGSISGLKIPAHH
notes: human NUDT16, full length, from MGC cDNA BC031215, which carries a mutation that replaces Ala22 by Val; A22V was already in the purchased cDNA and was not introduced by the authors; A TEV protease site follows the His6 tag; no cleavage is described for the crystallography sample; One monomer lies in the asymmetric unit and the dimer is formed by crystallographic symmetry; also called apo-NUDT16; …
Consider B1, for which the binding result in series [1] is recorded as “binds”.

B2: human NUDT16 wild-type (sample for analytical gel filtration) (enzyme, UniProt Q96DE0 1-195, looked up)
chain: MAGARRLELGEALALGSGWRHACHALLYAPDPGMLFGRIPLRYAILMQMRFDGRLGFPGGFVDTQDRSLEDGLNRELREELGEAAAAFRVERTDYRSSHVGSGPRVVAHFYAKRLTLEELLAVEAGATRAKDHGLEVLGLVRVPLYTLRDGVGGLPTFLENSFIGSAREQLLEALQDLGLLQSGSISGLKIPAHH
notes: human NUDT16 wild-type (Ala22); expression and purification for gel filtration are described only in S1 Text
Turning to B2, the “stoichiometry N” value in series [2] worked out at 2.

The record behind these values is PMC4485890, “Structural Basis for the Specificity of Human NUDT16 and Its Regulation by Inosine Monophosphate” (PLoS ONE, 2015).
